Measured values taken from patent publication US7790697B2, “Compositions and methods for inhibiting the synthesis or expression of MMP-1” (Trustees of Dartmouth College, priority 2004, dated 2010).

Assays:
Type in all cases: cell-based, human
MMP-1 protein = experiment: Western blot of MMP-1 protein in culture medium; details: MDA-231 cells producing the shRNA; 24 hours
Protocol: Western Blot Analysis. MDA-231 cells were cultured in 1 mL serum-free DMEM/F12 medium in six-well plates in the presence or absence of a collagen gel, with or without aprotinin (50 U/mL; Sigma, St. Louis, Mo.). After 24 hours, medium was harvested, proteins precipitated with cold 10% trichloroacetic acid, and resuspended in 50 μL SDS loading buffer (PROMEGA®, Madison, Wis.). Following SDS-PAGE and transfer to a PVDF membrane (IMMOBILON™-P; MILLIPORE™, Bedford, Mass.), the membrane was incubated in a 5% milk, Tris-buffered saline solution with 0.1% TWEEN™ (milk TBST) for 1 hour. The membrane was probed with a MMP-1 polyclonal antibody (CHEMICON®, Temecula, Calif.) diluted 1:5000 in milk TBST overnight at 4° C. The membrane was washed three times with TBST, and a 1:2000 dilution of goat anti-rabbit horseradish peroxidase (HRP) conjugated antibody (CELL SIGNALING TECHNOLOGY®, Beverly, Mass.) in milk TBST was added for 60 minutes. The blot was washed three times with TBST, and HRP activity was detected with the WESTERN LIGHTNING® chemiluminescence reagent according to the manufacturer's instructions (PERKINELMER®, Boston, Mass.).
The three MMPs primarily responsible for degrading type 1 collagen are MMP-1, MMP-13, and the membrane bound MT1-MMP (Stamenkovic (2003) J. Pathol. 200:448-64). […]

MT1-MMP (MMP-14) mRNA = experiment: Specificity qRT-PCR, MT1-MMP (MMP-14) mRNA in stable MDA-231 cells; details: stable MDA-231 cell lines, 24 hour serum-free; group average ± S.D.; P=0.4 vs empty vector
From the text: RNA Isolation and Real-Time RT-PCR. […] Real-Time PCR Primer Sequences. […] ID NO:7; MMP-1 reverse [NT] ID NO:8; MMP-2 forward [NT] ID NO:9; MMP-2 reverse [NT] ID NO:10; MMP-9 forward [NT] ID NO:11; MMP-9 reverse [NT] ID NO:12; MMP-13 forward [NT], SEQ ID NO:13; MMP-13 reverse [NT] ID NO:14; MMP-14 forward [NT] ID NO:15; MMP-14 reverse [NT] ID NO:16; GAPDH forward [NT] ID NO:17; GAPDH reverse [NT] ID NO:18; eGFP forward [NT] ID NO:19; eGFP reverse [NT] ID NO:20. Real-Time PCR Standards.

MMP-1 mRNA = MMP-1 mRNA by qRT-PCR in stably transfected MDA-231 cell lines; details: for Copies of MMP-1 mRNA per pg GAPDH mRNA: average ± S.D.
Protocol: Transfection of NIH/3T3 and MDA-231 Cells. NIH/3T3 cells were transiently transfected with LIPOFECTAMINE™ 2000 (INVITROGEN™, Carlsbad, Calif.) along with 0.5 μg peGFP, 0.5 μg pCMV-MMP-1, and 2 μg PSUPER™-MMP-1 shRNA or PSUPER™ with no insert. Transfection efficiency was monitored using eGFP signal. Total cellular RNA was harvested 48 hours after transfection and analyzed for MMP-1 mRNA by real-time RT-PCR. MDA-231 cells were stably transfected in triplicate with LIPOFECTAMINE™ 2000 (INVITROGEN™, Carlsbad, Calif.) and 2 μg of the PSUPER™.Retro.Neo.GFP plasmid containing the MMP-1 shRNA, the scrambled sequence or just the empty vector. Stable cell lines were selected by growth in the presence of 1 mg/mL G418 (STRATAGENE®, La Jolla, Calif.). Individual, stable cell lines were isolated with cloning disks according to the manufacturer's instructions (PGC Scientifics, Frederick, Md.).
RNA Isolation and Real-Time RT-PCR.
After initial neomycin selection and isolation of individual stable cell lines, MMP-1 mRNA and protein levels were determined using quantitative RT-PCR (qRT-PCR) and ELISA. MMP-1 mRNA levels were measured in RNA harvested from stably transfected cell lines after a 24 hour incubation in serum-free medium and were normalized to GAPDH mRNA levels. MMP-1 protein levels were measured in the serum-free media of the cell lines after 24 hours of incubation and were normalized to total protein content of the cells. The ELISA measured total (active and zymogen) forms of MMP-1 protein. […] To control for differences introduced into the cell lines during selection, these three individual cell lines for each group were pooled, and all subsequent experiments were performed on pooled cells.

B1: MMP-1 shRNA: Vector-expressed small hairpin RNA, SEQ ID NO:1 (sense) and SEQ ID NO:2 (antisense), specific to bases 234-252 of MMP-1 mRNA (nucleic acid)
sense: GATCCCCACCAGATGCTGAAACCCTGTTCAAGAGACAGGGTTTCAGCATCTGGTTTTTTGGAAA
antisense: AGCTTTTCCAAAAAACCAGATGCTGAAACCCTGTCTCTTGAACAGGGTTTCAGCATCTGGTGGG
modifications: the letters are possibly those of the target site
MMP-1 protein in medium (western blot) (MMP-1 protein): No detectable MMP-1 protein
MT1-MMP mRNA level (MT1-MMP (MMP-14) mRNA): 107000 ± 46000 copies of the target gene/pg GAPDH
Copies of MMP-1 mRNA per pg GAPDH mRNA (MMP-1 mRNA; Group of cell lines D1, Y2, Y7, P=0.004 vs empty vector): 6200 ± 3200 copies per pg GAPDH mRNA
Copies of MMP-1 mRNA per pg GAPDH mRNA (MMP-1 mRNA; MDA-231 cell line D1): 8900 ± 3600 copies per pg GAPDH mRNA
Copies of MMP-1 mRNA per pg GAPDH mRNA (MMP-1 mRNA; MDA-231 cell line Y2): 4600 ± 2500 copies per pg GAPDH mRNA
Copies of MMP-1 mRNA per pg GAPDH mRNA (MMP-1 mRNA; MDA-231 cell line Y7): 5000 ± 2400 copies per pg GAPDH mRNA
reduction in MMP-1 mRNA levels compared to empty vector cell lines (MMP-1 mRNA; three stable MDA-231 cell lines, 24 hour serum-free): greater than 90%
